Results as given in paper PMC6783867.

Target: 10th and 11th cadherin repeat domains of the Plutella xylostella cadherin (PxCR10–11), GST-tagged (Plutella xylostella)
Assay: BLI; Octet Red 96; GST-tagged PxCR10–11 loaded onto anti-GST biosensors; toxin 38.5 to 576.9 nM in solution; 400 s association, 400 s dissociation; 10 mM GSH, 50 mM Tris, pH 8.0; 1:1 binding model

Substance	Kd
Cry2Ab–AVMd (Cry2Ab30 conjugated with 4'',5-O-succinyl avermectin)	71.9 nM
Cry2Ab–AVM bioconjugate (Cry2Ab30 conjugated with 4''-O-succinyl avermectin)	3.44 nM
